Results on two substances are retold here after paper PMC10853780.

Series [1] has as its target HA-tagged DAXX (Y124A, R371W) (UniProt Q9UER7). The series is described as follows: co-IP; as the DAXX-ATRX co-IP (anti-HA magnetic beads on SF188 cell extracts, ethidium bromide), proteins separated on a 16% acrylamide gel; immunoblot for DAXX, H3.3 and H4. On the technique in general: Immunoblotting shows a protein as a band on a membrane.
The target of series [2] is HA-tagged DAXX (Y124A) (human) (UniProt Q9UER7). The series is described as follows: co-IP; anti-HA magnetic beads (Pierce HA-Tag Magnetic IP/Co-IP Kit) on SF188 cell extracts (500 μg protein), 4 h at 4°C, 50 μg/ml ethidium bromide throughout, final wash with 200 mM NaCl; immunoblot for DAXX and ATRX.

Consider H3.3-H4 heterodimer, for which the “percent decrease of the interaction, corrected for the reduced stability of the mutant” value in series [1] is “its interaction with H3.3 and H4 was decreased by > 80%”.

Turning to “alpha-thalassemia/mental retardation syndrome X-linked (ATRX), P46100 1-2492”, the percent reduction of the interaction against DAXX WT in series [2] was greater than 95%.
